Measured values reported in publication PMC6420652, “Developing a novel FRET assay, targeting the binding between Antizyme-AZIN” (Scientific Reports, 2019).
Where a chain is given by its changes, count along the chain named.

Experiments:
Experiment in all cases: FRET or BRET; Clover fusion protein constant at 50 nM, mRuby2 fusion of antizyme titrated; TBS pH 7.4 + 0.15% Tween-20, 1 hour at room temperature; plate reader, fit of donor quenching
Conditions in all cases: both partners purified
[1] = biological target: T1, Clover-AZIN (antizyme inhibitor with an N-terminal Clover tag) (human, UniProt O14977 1-448)
T1 construct: The vector has a TEV protease site after the His tag; also called hAZIN1; source: bacterial expression vector (pBAD), purified recombinant protein; not shown: Clover, N-terminal, kept
T1 sequence (looked up): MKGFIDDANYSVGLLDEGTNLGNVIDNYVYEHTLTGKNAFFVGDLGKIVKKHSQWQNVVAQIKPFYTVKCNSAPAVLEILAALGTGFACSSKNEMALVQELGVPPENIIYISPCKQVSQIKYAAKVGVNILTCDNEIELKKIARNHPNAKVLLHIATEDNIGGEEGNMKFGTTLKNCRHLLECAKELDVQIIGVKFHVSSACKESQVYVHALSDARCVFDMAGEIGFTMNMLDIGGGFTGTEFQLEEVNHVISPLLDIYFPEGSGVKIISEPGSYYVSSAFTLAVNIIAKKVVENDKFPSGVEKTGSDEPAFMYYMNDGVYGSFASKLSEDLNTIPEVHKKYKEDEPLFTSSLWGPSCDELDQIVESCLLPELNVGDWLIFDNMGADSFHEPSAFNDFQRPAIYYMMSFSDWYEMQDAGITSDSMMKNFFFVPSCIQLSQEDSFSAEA

[2] = biological target: T2, ODC-Clover fusion protein (ornithine decarboxylase), wild type (human, UniProt P11926 1-461)
T2 construct: human ornithine decarboxylase (hODC1); The legend says 'ODC-Clover fusion proteins'; the methods speak of N-terminal fluorescent fusion proteins of hODC1, so Clover is probably N-terminal; also called hODC1; source: bacterial expression vector (pBAD), purified recombinant protein
T2 sequence (looked up): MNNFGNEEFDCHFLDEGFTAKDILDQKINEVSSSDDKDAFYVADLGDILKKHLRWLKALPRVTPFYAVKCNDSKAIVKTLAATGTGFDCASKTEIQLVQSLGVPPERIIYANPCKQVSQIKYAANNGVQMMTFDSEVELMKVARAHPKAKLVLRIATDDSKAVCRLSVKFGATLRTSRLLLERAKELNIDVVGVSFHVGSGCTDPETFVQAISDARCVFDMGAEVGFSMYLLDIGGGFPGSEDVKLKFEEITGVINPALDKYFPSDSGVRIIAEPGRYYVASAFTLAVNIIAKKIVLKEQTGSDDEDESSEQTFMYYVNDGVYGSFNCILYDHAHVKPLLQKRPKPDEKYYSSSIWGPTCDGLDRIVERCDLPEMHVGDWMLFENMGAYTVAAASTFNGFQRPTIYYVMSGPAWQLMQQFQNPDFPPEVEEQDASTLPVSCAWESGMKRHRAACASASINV

[3] = biological target: T3, ODC-N327A (Clover fusion protein) (human, UniProt P11926 1-461, N327A)
T3 construct: human ornithine decarboxylase (hODC1) with N327A; As m5 with the point mutation; source: bacterial expression vector (pBAD), purified recombinant protein
T3 sequence (looked up): T2 sequence (looked up) with N327A

[4] = biological target: T4, ODC-Y331S (Clover fusion protein) (human, UniProt P11926 1-461, Y331S)
T4 construct: human ornithine decarboxylase (hODC1) with Y331S; As m5 with the point mutation; source: bacterial expression vector (pBAD), purified recombinant protein
T4 sequence (looked up): T2 sequence (looked up) with Y331S

- Kd [1]: 22 nM
- Kd [2]: 508 nM
- Kd [3]: 192 nM
- Kd [4]: 277 nM
B1: antizyme-mRuby2 (antizyme with a C-terminal mRuby2 tag) (natural protein)
chain: not shown
notes: human antizyme 1 (OAZ1), codon-optimized synthetic gene; An HRV 3C protease site lies between antizyme and mRuby2 (used for the cleavage control); also called AZ-mRuby2; AZ; source: bacterial expression vector (pBAD), gene codon optimized for E. coli, purified recombinant protein; not shown: mRuby2, C-terminal, kept
